Assay results: the supplement of paper PMC9170038

Test system: K4 kissing-loop RNA reporter
Test: apparent KD of K4 kissing-loop reporter; higher = weaker reporter binding
Settings: Eterna round: R107
Procedure: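 RNA-MaP round R107: designed RNA switches with theophylline, tryptophan, arginine or FMN aptamers are transcribed on-chip within common flanks. They are titrated with a labelled K4 kissing-loop RNA reporter in RNA-MaP buffer (100 mM Tris pH 7.5, 80 mM KCl, 4 mM MgCl2), without ligand or with the indicated ligand. Median apparent KD per design.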

[1] = input ligand: theophylline 20 uM
[2] = input ligand: tryptophan 2.4 mM
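Note: bound reporter read as fluorescence of individual clusters on recovered sequencing chips by microscopy, with normalized cluster intensities fitted with a binding model.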

Row | Sequence | apparent KD of K4 kissing-loop reporter (input ligand: FMN 200 uM) [nM] | apparent KD of K4 kissing-loop reporter (input ligand: arginine 13.2 mM) [nM] | apparent KD of K4 kissing-loop reporter (input ligand: none) [nM] | apparent KD of K4 kissing-loop reporter [1] [nM] | apparent KD of K4 kissing-loop reporter [2] [nM]
1 | UCUGGAGCAUAUGAUACCAGCAGUGAGAGAGAGGAAGUAUAGUGAUGUUAUAUGAGAGAAUGCCCUUGGCAGCGUGUGUAGUGGG [SSTheophylB.M] | 155 | 146 | 119 | 94.5 | 107
2 | CAUACGCAUGGAGGAUAUGAGAUUACUCGUAUCAUUUAAUAUUCUCAGUGAUGUUGAGAUUUGGGCUCAGAAGGCCAUGUGUAUG [Ex FMN B 16] | 393 | 261 | 290 | 324 | 288
3 | UCCACGCUUAGAGGAUAUCGGAUUAGAGUGAUGUUCUAAAGAAGCCCAGUGAUGUUGGAUGGUAUACGAGAAGGCUGUGGCGUGU [Same State FMN B GF 4] | 254 | 446 | 386 | 371 | 369
4 | UUAGAGAUCUCAGGAUAUCAGUGAUGUUGGUUGCCAGAUCUGAGAUAGAAUUCUAUCUCAGAUCAAUGAGAAGGGAGAUCUCAUU [AK4 Exc FMN B] | 501 | 313 | 352 | 317 | 282
5 | GCCGUAGAUUGAAGGAGCGUUCUUCAGCAUACUUGCAGUGAUGUUGCAUUUUACAUGUAAGAACAGGUAGGUCGCAAUCUACGGC |  | 119 | 412 | 40 | 235
6 | GAUUAAUAAGAGGAUACCAGUACUAAUAAAGUACAUUAAUAGUAGAGUGAUGUUCUAUAGUACCCUUGGCAGCUUAGAGUAAGUU [#09 K4 Theophylline B Exclusion] | 131 | 200 | 167 | 210 | 103
7 | GCCUAGCAGCGAAGGAGCGCCAGGAGAAGAAAUGGAGAGAGUUGAGUGAUGUUCAAAUGGUGGCAGGUAGGUCGCGCUGCUAGGC [#08 K4 Arginine B Same State] | 559 | 261 | 432 | 444 | 377
8 | UCCUAGGCUCGAAAGAGCCUAGGAUGGACUCAGGAUAUCCGGAAACGGAGAAGGGAGUCACUAGUGAUGUUAGGGACUCCCUAAC | 302 | 97.7 | 110 | 123 | 109
9 | CACCAUGAAUUCUCUAGGAGUGAUGUUUUUCGAGGACCGGUACGGCCGCCACUCGGACGAGGACCGUGGGAGCGGCGAACCGACU [ddfgmullin] | 172 | 74.7 | 208 | 334 | 150
10 | CGAGCGCGUGCGGCCGCCACUACUAUAAGUCGUCCAAGUUAGUGAUGUUGACUGAACGUCGGAAAUAGGACCGGGCAUAGUUUUA [theeternabot_sameState_KL_Trp_B_40] | 351 | 410 | 420 | 415 | 300
11 | GCUAUGGUAGGAAGGAGCGCUACCUUGUUUUUACGAGUGAUGUUCGGAAGCAGGGUGUUAAAGCAGGUAGGUCGCCUACUAUAGC [Arginine B K4 21] | 192 | 178 | 167 | 205 | 176
12 | UCCUGCAAUCUGCCACGAAAGUGGGUUGAUACCAGAGUCGAAAGACUCCCUUGGCAGCGAGUGAUGUUCGUUGCAGGUGUUUAAA [MatMod 11 - Jieux - Exclusion - Theophylline A] | 197 | 172 | 186 | 217 | 174
13 | GCAACAUUGGCAGGAUAUCCUUCUCAGUGAUGUUGAGGGUUCAGCUAACGAAAGUUAGUUGUACCGGGAGAAGGGCUAAUGUUGC [Omei KL FMN B SS A v8] | 288 | 650 | 1100 | 913 | 1240
14 | AAACUACGUGACGAUACCAGCUUACUCGGCAAGCCAGUGAUGUUGGUGAAAAGGAGUCAAAGCCCUUGGCAGCGUCGAAGGUUUG [Usandiat] | 257 | 215 | 252 | 129 | 255
15 | GGAUCCACCAGUGAUGUUGGAGAAAACUUCAAGGAUAUGACGAAAGUCAGAAGGUGAUAGACUGGACAAAGUCCGGUCGGAUCCA [FmnA 19 U29+A57] | 552 | 729 | 454 | 527 | 462
16 | GUGCGGCUAGUGAUGUUGGUUGCGUGGGAAGGAGCGCAGAAACAUGCAGGUAGGUCGCCCACAUCUCUGAUAAAAGAUUAAUUCA [Riares] | 304 | 254 | 235 | 338 | 239
17 | AGGAGCGUGCGAUGGAAAUCGCACGCUCCUCGAGGACCGGUACGGCCGCCACUCGCUCGCGCCGAGUGAUGUUCGGCCGGCGAAG [#2 Same State - Tryptophan A Attempt #16 (HarryS)] | 85.6 | 128 | 85.7 | 58.6 | 82.8
18 | UGUAAUGGCUGAGCAGCCGUGGUACGAGAUACCAGUGAUUUCGAUCACCCUUGGCAGCUCGGCGUGAGUGAUGUUCACGCUACAC [Theo A SS t12] | 201 | 199 | 203 | 207 | 199
19 | AGUAGUUGGACGGCCGCCACUGGAACAGCUUUGCCAAAGGCAGAGCACUAGAGUGAUGUUCUAGCUAGGACCGGGUCCAACUACA [whbob_SS_Tryp_B_t16] | 338 | 89.7 | 440 | 249 | 882
20 | CGCAGUGAUGUUGCGAGUAGCUACAGGGAAGGAGCGUGCUAGAGCACAGGUAGGUCGCCCACUGGGUCAGUGAUGUUGGUCGGGU [Same State Arginine A GF 29] | 201 | 166 | 180 | 171 | 171
21 | AAAUAUUCGAGUGAUGUUCGAUAAAUUUCAGAGGAUAUGCUUAAAAGCAGAAGGCUGUAUUUCUAUUUGUUAUUAAAUUUUAUAA [JR_ExcFMNA_Sub002] | 90.3 | 107 | 91.1 | 111 | 76.9
22 | AGAUUCGACACGGCCGCCACUCGUGGAUCUUGGUUGAGAGAUGAAAUAGAGUGAUGUUCUAAUACGAGGACCGGGUGUUGAGUCU [KL-SSTryp-B23] | 221 | 165 | 200 | 177 | 174

Row | Sequence | apparent KD of K4 kissing-loop reporter (input ligand: FMN 200 uM) [nM] | apparent KD of K4 kissing-loop reporter (input ligand: arginine 13.2 mM) [nM] | apparent KD of K4 kissing-loop reporter (input ligand: none) [nM] | apparent KD of K4 kissing-loop reporter [1] [nM] | apparent KD of K4 kissing-loop reporter [2] [nM]
23 | UGAUACCAGACGGCCGCCACUAGGGCUAGCAAAGCUAGCAAGUGAUGUUUGAGGAGUGAUGUUCCUAGGACCGGGUCUGGUAUCU [TrypBX 1 #Palindromic #SwitchBubble #StaticStem] | 60.5 | 36.3 | 52.2 | 46.5 | 25.9
24 | UGAUAGGACAGAAGGAGCGGUAGUGAUGUUACCAAAAGUAUAAGGUGUCAAAAGACACCCUGCCAGGUAGGUCGCUGUCCUAUCU | 157 | 210 | 178 | 198 | 152
25 | AAGCGUGUCGCGGCCGCCACUCCUGAGUGAUGUUCAGAAAGCAGUUUUUUAUUCAGGAAAAGCGCGAGGACCGGGCGACGCCGAU [theeternabot_sameState_KL_Trp_B_1] | 367 | 207 | 460 | 328 | 515
26 | UGGACAUGACUCGAUAAGAGUCAAUGAGAUACCAGUGACGAAAGUCACCCUUGGCAGCUCAACUGCCAGUGAUGUUGGUAGUCCU [#SwitchBubble #StaticStem] | 739 | 424 | 742 | 793 | 566
27 | AAUAUAGUGAUGUUAUAUAAGAAGGAGUUACGAGGACCGGUACGGCCGCCACUCGAAACGAGUGAAGAAGGAGGAAGGAGGAGGA [SSTRyptA.A] | 479 | 300 | 453 | 409 | 366
28 | UGUUAUGUAUCAGGAUAUUAGUGUUGUUUGUUUAUGUUAGUGAUGUUGAUAUUUGUUUUAUGUAUUUAAGAAGGGAUUGAGAUGU [kkplmullin] | 369 | 339 | 310 | 359 | 258
29 | AAGUUUUAUAAACUCAUGGUUUCGUCAGAUACCAGCCUCGAGAGAGGCCCUUGGCAGCUGCAUGAGUGAUGUUCAUGUUCGAAGA [KL_XTheoA8] | 253 | 260 | 374 | 239 | 251
30 | GUGGUUUACGUAGGAUAUCGGUGAUGAGUAAAUGGAGUGAUGUUCCGAGAUUGAAUAUGAGAUGAGCGAGAAGGGCGGUUUAUGC [FMN B Same State; Euporia Solution 3] | 60.8 | 77.3 | 63.1 | 89.7 | 54.7
31 | AAGUCAUAGGCAGGAUAUGCUUAGUAUUAAGGCCAUAUAUACGUAUAGAGUGAUGUUUUGUACCAGGCAGAAGGGCUACAUCCGU [FMN B Excl V5 (+2U)] | 755 | 562 | 699 | 683 | 541
32 | UAUGAAGGUGGAGGAUAUUGAUUGAACCUUGGUCAGGAGUGAUGUUCCGGGAAGCCUUGGGUUCAUCGAGAAGGCCAAGGAUAGU [Extra 2] | 139 | 257 | 254 | 280 | 238
33 | AGGGCGGAGUGAUGUUCCGGCUCCCGAUUUAAGGAUAUUGCGUAAACAAGAAGGUAAAGGCGCAGCAAUAUUAUUUCGUAAGGCG [theeternabot_exclusion_KL_FMN_A_23] | 85.5 | 103 | 93.7 | 111 | 79.1
34 | AGACUACUGAUAGGAUAUAACAUACUAGCUCGUAUACCAAAGGUAUACGAGCUCCUUCUAGUGAUGUUAGAAGGGUCGGUAGUCA [Omei KL FMN B Exc B v4] | 107 | 101 | 106 | 99.6 | 102
35 | AAUGUACAAGUGAUGUUUGUACUUUCCGAAGGAGCGUCUAAUAAGACAGGUAGGUCGCGGAUACUCUAAAUAAUCAGGUCAUUGA [#06 K4 Arginine A Exclusion] | 89.9 | 89 | 79.8 | 80.6 | 77.4
36 | UGACAUUGCUCAGAUACCAGACAUGAGCAUCAGCCAUGUACCAAGAAAACGUACAUAAAUGUCCCUUGGCAGCUGAGCAAUGUCU [TheoBX 10] | 83.5 | 39.8 | 59.9 | 89 | 63.8
37 | ACGUGCACCAGUGAUGUUGGAAAAUAUGAAGGAGCGGGAGAAAGCCCAGGUAGGUCGCAUAAUAGCACGAGCCACGAAAGUGGCA | 233 | 145 | 178 | 141 | 131
38 | AAGUGUUCUAGUGAUACCAGACAUUUCUAUUACAUUAAUAUAGCUAAGUGAUGUUUAGCAGUCCCUUGGCAGCACUAUUUCACUA [JR_SSTheophyB_Sub015] | 167 | 193 | 174 | 238 | 191
39 | AAGUGAUGUUGUAGUGAUGUUGUGAUGUUGCAGGAUAUAUAGUGAUGUAGAAGGGUAUGUGCAGUUUUUUUUUUUGAGUGUUGAU [dpdmullin] | 76.6 | 34.2 | 59.9 | 43.1 | 61
40 | UCCUAGGCUCGAAAGAGCCUAGGAUUUACUCAGGAUAUCCGGAAACGGAGAAGGGAGUGACUAGUGAUGUUAGGGACUCCCUAAA | 144 | 80.8 | 95.5 | 108 | 90.6
41 | GAUGGGUAUCAAGGAUAUGCCACUAUUGACUCCUAGAUGGUCAACCAUAUAAUGCGAGUGAUGUUCGCAGAAGGUGAUUCUUAGC [theeternabot_exclusion_KL_FMN_B_24] | 92.3 | 92.3 | 89.5 | 89.7 | 73.2
42 | AAUAAGGAGUGAUGUUCCAAGUGAUGUUAACGAGGACCGGUACGGCCGCCACUCGAUACGGCCGGAAAGUAAGAUAAACUACAAU [Same State - Tryptophan A (Freestyle 3)] | 70.5 | 51.3 | 60.8 | 55.9 | 54.6
43 | CGCGCGGGUUGAGAGGUUCGCGCGAAUGAUACCAGUAUAUAAGAAUACCCUUGGCAGCAUAAGAAAGAUAUAGUGAUGUUGUAUA [SSTheophA.G] | 408 | 211 | 262 | 355 | 262
